Patent publication US20230203177A1 (Bristol-Myers Squibb, published 2023)
Changes are numbered by the printed parent chain. Numbers in names are those of the source.

B1: M4 (HC-K12E / LC-wt) (antibody, human IgG1, kappa)
heavy: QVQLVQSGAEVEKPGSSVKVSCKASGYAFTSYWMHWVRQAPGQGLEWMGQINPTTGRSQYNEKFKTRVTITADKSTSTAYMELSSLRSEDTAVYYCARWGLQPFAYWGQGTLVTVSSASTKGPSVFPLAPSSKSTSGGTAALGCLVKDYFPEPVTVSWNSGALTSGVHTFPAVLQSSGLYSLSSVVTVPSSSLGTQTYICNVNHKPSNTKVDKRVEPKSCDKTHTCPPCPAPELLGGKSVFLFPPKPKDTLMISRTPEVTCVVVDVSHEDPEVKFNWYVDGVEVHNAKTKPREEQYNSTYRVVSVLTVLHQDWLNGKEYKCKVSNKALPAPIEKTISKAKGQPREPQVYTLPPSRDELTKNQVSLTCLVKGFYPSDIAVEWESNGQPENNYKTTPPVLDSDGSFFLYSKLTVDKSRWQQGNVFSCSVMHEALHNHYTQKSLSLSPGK
light: DIQMTQSPSFLSASVGDRVTITCKASQDVSTAVAWYQQKPGKAPKLLIYSASYRYTGVPSRFSGSGSGTDFTLTISSLQPEDFATYYCQQHYSTPWTFGGGTKVEIKRTVAAPSVFIFPPSDEQLKSGTASVVCLLNNFYPREAKVQWKVDNALQSGNSQESVTEQDSKDSTYSLSSTLTLSKADYEKHKVYACEVTHQGLSSPVTKSFNRGEC
notes: IgG1-P238K; two production batches; also called HC4/LC1; M4-b
B2: M37 (HC-K12E,K13Q,K23E / LC-K45E) (antibody, human IgG1, kappa)
heavy: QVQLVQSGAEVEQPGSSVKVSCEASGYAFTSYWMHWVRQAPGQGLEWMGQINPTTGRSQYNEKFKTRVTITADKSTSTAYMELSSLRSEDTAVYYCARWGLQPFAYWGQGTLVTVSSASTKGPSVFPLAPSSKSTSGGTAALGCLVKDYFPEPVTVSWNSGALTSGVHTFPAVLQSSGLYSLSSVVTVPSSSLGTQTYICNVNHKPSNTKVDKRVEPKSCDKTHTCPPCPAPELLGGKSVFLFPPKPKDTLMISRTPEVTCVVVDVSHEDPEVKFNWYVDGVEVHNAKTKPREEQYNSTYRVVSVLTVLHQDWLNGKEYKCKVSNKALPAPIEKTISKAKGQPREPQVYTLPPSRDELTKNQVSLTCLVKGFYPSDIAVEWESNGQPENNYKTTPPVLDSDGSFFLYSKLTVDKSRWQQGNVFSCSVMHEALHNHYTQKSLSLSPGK
light: B1 light with K45E
notes: IgG1-P238K; also called HC5/LC3
B3: M38 (HC-K12V,K19S,K23A / LC-K45E) (antibody, human IgG1, kappa, V domains shown)
VH: QVQLVQSGAEVVKPGSSVSVSCAASGYAFTSYWMHWVRQAPGQGLEWMGQINPTTGRSQYNEKFKTRVTITADKSTSTAYMELSSLRSEDTAVYYCARWGLQPFAYWGQGTLVTVSS
VL: DIQMTQSPSFLSASVGDRVTITCKASQDVSTAVAWYQQKPGKAPELLIYSASYRYTGVPSRFSGSGSGTDFTLTISSLQPEDFATYYCQQHYSTPWTFGGGTKVEIKR
notes: IgG1-P238K; also called HC6/LC3
B4: M47 (HC-R67Q / LC-K45E) (antibody, human IgG1, kappa, V domains shown)
VH: B3 VH with V12K, S19K, A23K, R67Q
VL: B3 VL
notes: IgG1-P238K; also called HC15/LC3
B5: M80 (HC-K63Q / LC-R61Q) (antibody, human IgG1, kappa, V domains shown)
VH: B3 VH with V12K, S19K, A23K, K63Q
VL: B3 VL with E45K, R61Q
notes: IgG1-P238K; also called HC16/LC5
B6: M96 (HC-K63Q / LC-K107Q,R108Q) (antibody, human IgG1, kappa)
heavy: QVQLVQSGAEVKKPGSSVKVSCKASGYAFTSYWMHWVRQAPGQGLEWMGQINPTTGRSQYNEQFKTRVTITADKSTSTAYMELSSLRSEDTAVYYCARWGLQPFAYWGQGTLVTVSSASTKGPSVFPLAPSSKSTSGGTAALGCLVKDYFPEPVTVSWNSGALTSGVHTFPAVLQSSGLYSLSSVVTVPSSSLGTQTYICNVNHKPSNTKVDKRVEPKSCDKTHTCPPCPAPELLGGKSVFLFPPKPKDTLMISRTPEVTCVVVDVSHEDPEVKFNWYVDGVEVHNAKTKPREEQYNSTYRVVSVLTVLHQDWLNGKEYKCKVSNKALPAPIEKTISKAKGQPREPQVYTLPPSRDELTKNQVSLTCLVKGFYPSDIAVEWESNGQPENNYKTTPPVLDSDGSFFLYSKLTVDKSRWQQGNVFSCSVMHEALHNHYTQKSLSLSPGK
light: B1 light with K107Q, R108Q
notes: IgG1-P238K; also called HC16/LC6
B7: M36 (HC-K12E / LC-K45E) (antibody, human IgG1, kappa)
heavy: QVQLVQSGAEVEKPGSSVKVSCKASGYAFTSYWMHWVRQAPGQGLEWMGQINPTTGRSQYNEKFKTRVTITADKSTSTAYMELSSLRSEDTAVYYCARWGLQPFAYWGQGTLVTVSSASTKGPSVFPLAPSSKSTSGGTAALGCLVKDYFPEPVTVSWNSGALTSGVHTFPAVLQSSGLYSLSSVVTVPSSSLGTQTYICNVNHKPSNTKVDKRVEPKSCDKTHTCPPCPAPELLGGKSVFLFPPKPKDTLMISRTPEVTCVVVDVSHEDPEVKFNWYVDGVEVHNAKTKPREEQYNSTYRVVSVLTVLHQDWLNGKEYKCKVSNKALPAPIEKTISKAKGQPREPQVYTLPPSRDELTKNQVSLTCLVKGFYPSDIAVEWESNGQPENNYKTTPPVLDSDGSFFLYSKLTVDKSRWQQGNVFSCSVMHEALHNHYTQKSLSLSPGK
light: B1 light with K45E
notes: IgG1-P238K; also called HC4/LC3
B8: M63 (HC-R67Q / LC-K45Q,R54Q,R61Q) (antibody, human IgG1, kappa, V domains shown)
VH: B3 VH with V12K, S19K, A23K, R67Q
VL: B3 VL with E45Q, R54Q, R61Q
notes: IgG1-P238K; also called HC15/LC4
B9: M53 (HC-K12E,K13Q,K23E / LC-K45Q,R54Q,R61Q) (antibody, human IgG1, kappa)
heavy: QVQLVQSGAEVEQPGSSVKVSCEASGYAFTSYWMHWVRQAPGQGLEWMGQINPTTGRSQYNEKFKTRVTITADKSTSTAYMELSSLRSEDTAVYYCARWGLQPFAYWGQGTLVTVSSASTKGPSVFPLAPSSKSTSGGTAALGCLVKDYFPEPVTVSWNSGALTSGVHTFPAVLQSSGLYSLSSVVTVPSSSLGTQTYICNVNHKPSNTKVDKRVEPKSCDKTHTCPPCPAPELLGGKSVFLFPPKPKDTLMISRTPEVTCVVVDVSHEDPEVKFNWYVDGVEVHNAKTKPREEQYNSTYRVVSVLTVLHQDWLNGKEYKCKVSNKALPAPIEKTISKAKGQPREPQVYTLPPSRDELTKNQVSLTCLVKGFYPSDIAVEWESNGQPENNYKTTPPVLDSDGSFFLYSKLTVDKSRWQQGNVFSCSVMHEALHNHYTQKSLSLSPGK
light: B1 light with K45Q, R54Q, R61Q
notes: IgG1-P238K; also called HC5/LC4
B10: M13 (HC-E46K,E62K / LC-wt) (antibody, human IgG1, kappa)
heavy: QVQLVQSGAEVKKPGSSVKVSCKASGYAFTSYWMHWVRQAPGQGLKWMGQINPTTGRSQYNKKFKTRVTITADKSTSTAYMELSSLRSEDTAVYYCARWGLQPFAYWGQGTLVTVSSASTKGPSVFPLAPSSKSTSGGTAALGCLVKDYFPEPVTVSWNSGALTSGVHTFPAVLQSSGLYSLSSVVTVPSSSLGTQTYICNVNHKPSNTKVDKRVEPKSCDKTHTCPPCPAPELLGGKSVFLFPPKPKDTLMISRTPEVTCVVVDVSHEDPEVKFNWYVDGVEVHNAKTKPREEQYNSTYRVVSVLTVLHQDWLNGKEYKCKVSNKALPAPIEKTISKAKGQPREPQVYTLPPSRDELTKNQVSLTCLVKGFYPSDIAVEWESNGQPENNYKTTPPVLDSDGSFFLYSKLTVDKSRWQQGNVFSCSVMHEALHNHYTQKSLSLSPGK
light: B1 light
notes: IgG1-P238K; proof of concept control with more positive charge; also called HC13/LC1
B11: M94 (HC-K74T / LC-K107Q,R108Q) (antibody, human IgG1, kappa)
heavy: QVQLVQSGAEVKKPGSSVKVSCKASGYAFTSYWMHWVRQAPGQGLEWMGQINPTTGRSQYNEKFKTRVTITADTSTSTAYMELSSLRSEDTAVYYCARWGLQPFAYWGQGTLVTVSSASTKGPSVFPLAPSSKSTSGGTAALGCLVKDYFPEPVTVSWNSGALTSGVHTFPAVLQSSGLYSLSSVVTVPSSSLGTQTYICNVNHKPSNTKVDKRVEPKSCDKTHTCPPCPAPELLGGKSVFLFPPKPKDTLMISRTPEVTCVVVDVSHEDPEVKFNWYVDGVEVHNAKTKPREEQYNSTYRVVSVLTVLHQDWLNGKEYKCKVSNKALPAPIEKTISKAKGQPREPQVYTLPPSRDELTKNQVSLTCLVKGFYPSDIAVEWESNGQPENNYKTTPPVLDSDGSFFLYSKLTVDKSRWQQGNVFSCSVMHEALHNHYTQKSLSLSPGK
light: B1 light with K107Q, R108Q
notes: IgG1-P238K; also called HC14/LC6
B12: M49 (HC-wt / LC-K45Q,R54Q,R61Q) (antibody, human IgG1, kappa)
heavy: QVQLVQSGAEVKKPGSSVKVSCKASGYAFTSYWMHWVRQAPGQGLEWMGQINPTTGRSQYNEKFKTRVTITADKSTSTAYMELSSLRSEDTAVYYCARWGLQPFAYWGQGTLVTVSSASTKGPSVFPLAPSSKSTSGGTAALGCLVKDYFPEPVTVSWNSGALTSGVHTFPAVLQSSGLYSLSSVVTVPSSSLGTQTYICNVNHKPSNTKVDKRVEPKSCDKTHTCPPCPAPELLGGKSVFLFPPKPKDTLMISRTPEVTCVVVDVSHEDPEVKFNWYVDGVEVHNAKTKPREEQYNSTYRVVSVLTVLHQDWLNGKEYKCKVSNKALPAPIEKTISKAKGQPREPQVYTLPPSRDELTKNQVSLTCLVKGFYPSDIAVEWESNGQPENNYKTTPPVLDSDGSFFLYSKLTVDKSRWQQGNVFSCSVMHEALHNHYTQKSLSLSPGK
light: B1 light with K45Q, R54Q, R61Q
notes: IgG1-P238K; also called HC1/LC4
B13: M62 (HC-K74T / LC-K45Q,R54Q,R61Q) (antibody, human IgG1, kappa, V domains shown)
VH: B3 VH with V12K, S19K, A23K, K74T
VL: B3 VL with E45Q, R54Q, R61Q
notes: IgG1-P238K; also called HC14/LC4
B14: M10 (HC-R67E / LC-wt) (antibody, human IgG1, kappa)
heavy: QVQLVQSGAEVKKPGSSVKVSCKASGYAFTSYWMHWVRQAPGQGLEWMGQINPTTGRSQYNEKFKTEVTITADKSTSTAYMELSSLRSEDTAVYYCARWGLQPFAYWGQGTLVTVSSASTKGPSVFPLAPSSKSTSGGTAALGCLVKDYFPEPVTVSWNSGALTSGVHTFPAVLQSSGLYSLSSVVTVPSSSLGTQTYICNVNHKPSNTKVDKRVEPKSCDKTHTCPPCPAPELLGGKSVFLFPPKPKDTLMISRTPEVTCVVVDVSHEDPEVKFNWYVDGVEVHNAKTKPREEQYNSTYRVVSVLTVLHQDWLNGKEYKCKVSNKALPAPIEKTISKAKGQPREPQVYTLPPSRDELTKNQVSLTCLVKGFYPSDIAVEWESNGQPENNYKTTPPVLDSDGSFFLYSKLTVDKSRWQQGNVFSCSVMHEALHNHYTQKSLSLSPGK
light: B1 light
notes: IgG1-P238K; also called HC10/LC1
B15: M95 (HC-R67Q / LC-K107Q,R108Q) (antibody, human IgG1, kappa)
heavy: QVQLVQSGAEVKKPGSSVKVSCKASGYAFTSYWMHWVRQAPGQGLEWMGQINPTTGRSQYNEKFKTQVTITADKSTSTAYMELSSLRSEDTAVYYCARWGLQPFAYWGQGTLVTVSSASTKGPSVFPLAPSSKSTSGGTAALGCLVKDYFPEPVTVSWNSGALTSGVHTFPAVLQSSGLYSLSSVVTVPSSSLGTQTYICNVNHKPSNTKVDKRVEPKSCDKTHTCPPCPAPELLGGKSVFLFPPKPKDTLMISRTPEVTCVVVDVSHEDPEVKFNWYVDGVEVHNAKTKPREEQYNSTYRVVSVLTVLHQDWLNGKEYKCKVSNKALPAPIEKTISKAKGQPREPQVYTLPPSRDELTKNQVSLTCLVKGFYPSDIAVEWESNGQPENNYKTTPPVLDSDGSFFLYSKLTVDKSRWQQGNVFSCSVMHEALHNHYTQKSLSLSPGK
light: B1 light with K107Q, R108Q
notes: IgG1-P238K; also called HC15/LC6
B16: M33 (HC-wt / LC-K45E) (antibody, human IgG1, kappa)
heavy: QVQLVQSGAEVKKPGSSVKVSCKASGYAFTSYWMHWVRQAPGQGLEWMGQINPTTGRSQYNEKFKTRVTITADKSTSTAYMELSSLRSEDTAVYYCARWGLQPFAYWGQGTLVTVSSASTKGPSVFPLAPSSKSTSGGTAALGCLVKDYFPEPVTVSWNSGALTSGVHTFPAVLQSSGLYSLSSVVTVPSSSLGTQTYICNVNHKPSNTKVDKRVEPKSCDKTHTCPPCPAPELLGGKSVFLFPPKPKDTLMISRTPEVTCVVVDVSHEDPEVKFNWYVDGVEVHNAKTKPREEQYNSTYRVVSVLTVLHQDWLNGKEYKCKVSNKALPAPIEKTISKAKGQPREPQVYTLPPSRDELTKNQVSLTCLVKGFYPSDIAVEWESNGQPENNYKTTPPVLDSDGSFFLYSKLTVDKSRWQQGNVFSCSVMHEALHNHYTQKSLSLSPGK
light: B1 light with K45E
notes: IgG1-P238K; also called HC1/LC3
B17: M54 (HC-K12V,K19S,K23A / LC-K45Q,R54Q,R61Q) (antibody, human IgG1, kappa, V domains shown)
VH: B3 VH
VL: B3 VL with E45Q, R54Q, R61Q
notes: IgG1-P238K; also called HC6/LC4

target: T1, soluble human CD40 extracellular domain (human, UniProt P25942 21-193); assay: SPR, Ab captured from supernatant on protein A, hCD40 ECD analyte
T1 construct: Produced in house; also called hCD40; soluble hCD40 extracellular domain
T1 sequence (P25942 21-193 limits assumed): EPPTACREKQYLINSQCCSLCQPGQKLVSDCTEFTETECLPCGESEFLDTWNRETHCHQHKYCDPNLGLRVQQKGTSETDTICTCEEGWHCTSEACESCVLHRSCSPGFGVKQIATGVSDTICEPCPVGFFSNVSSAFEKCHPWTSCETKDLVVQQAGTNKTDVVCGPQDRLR
Summary of the method: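 Soluble human CD40 extracellular domain flowed at 50/500 nM (or 5/50 nM) over antibody held on protein A at 3 μg/ml, with 180 s on- and off-phases. Run in PBS-T pH 7.2 at 25 °C; kinetics from 1:1 Langmuir model.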

Binder	Kd
B1	3.6 nM
B2	4.1 nM
B3	3.9 nM
B4	3.2 nM
B5	4.1 nM
B6	3.9 nM
B7	3.4 nM
B8	2.4 nM
B9	3.2 nM
B10	8 nM
B11	3.6 nM
B12	3 nM
B13	3.1 nM
B14	3 nM
B15	3.4 nM
B16	4 nM
B17	3 nM

target: human CD40 on primary human tonsillar B cells (human, UniProt P25942 21-277); assay: cell-based or functional assay
Sequence (P25942 21-277 limits assumed): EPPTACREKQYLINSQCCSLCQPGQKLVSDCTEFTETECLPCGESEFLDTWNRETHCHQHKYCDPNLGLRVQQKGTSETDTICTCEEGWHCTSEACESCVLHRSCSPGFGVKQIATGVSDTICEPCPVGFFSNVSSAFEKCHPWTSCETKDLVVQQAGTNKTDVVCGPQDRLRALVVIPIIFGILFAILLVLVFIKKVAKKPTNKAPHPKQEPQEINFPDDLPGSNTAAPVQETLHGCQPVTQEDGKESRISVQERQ

Binder	IC50, inhibition of tonsillar human B cell proliferation stimulated by IZ-hCD40L trimer (M4 lot 1)	IC50, inhibition of tonsillar human B cell proliferation stimulated by IZ-hCD40L trimer (M4 lot 2)	IC50, inhibition of tonsillar human B cell proliferation stimulated by hCD40L expressing CHO cells (M4 lot 1)	IC50, inhibition of tonsillar human B cell proliferation stimulated by hCD40L expressing CHO cells (M4 lot 2)	IC50, inhibition of tonsillar human B cell proliferation stimulated by IZ-hCD40L trimer	IC50, inhibition of tonsillar human B cell proliferation stimulated by hCD40L expressing CHO cells
B1	0.0029 µg/mL	0.0008 µg/mL	0.0237 µg/mL	0.0396 µg/mL		
B2					0.0009 µg/mL	0.129 µg/mL
B3					0.0072 µg/mL	0.181 µg/mL
B4					0.0004 µg/mL	0.0547 µg/mL
B5					0.0164 µg/mL	0.369 µg/mL
B7					0.0026 µg/mL	0.0477 µg/mL
B8					0.0057 µg/mL	0.208 µg/mL
B9					0.0034 µg/mL	0.367 µg/mL
B10					0.0033 µg/mL	0.0208 µg/mL
B12					0.0007 µg/mL	0.0672 µg/mL
B13					0.0062 µg/mL	0.356 µg/mL
B14					0.0277 µg/mL	0.353 µg/mL
B16					0.0009 µg/mL	0.0575 µg/mL
B17					0.0033 µg/mL	0.201 µg/mL

target: T1, soluble human CD40 extracellular domain; assay: SPR, antibody captured from supernatant on protein A chip, soluble hCD40 ECD at 5 and 50 nM (summary table of the 16 chosen antibodies)

Binder	Kd
B1	3.6 nM
B2	4.1 nM
B3	3.9 nM
B4	3.2 nM
B5	4.1 nM
B7	3.4 nM
B8	2.4 nM
B9	3.2 nM
B10	8 nM
B12	3 nM
B13	3.1 nM
B14	3 nM
B16	4 nM
B17	3 nM

target: T1, soluble human CD40 extracellular domain; assay: SPR, purified Ab on protein A, 6 concentrations of hCD40 ECD
Method: Additionally, to more accurately define the dissociation rate (kd), a longer dissociation time of 360 seconds (s) was used as opposed to the shorter 180 s dissociation that had been used in the supernatant screening experiment.
CD40 binding SPR: SPR studies of the purified antibodies were conducted on BIAcore™ T200 instrument (GE Healthcare, Chicago Ill.). A Series S Protein A sensor chip (GE Healthcare, Chicago Ill.) was equilibrated with SPR running buffer of 10 mM NaPO₄, 130 mM NaCl, 0.05% tween 20, (PBS-T) pH 7.2 at 25° C. The purified antibody samples were diluted to 3 μg/ml in PBS-T and captured on the protein A surface for 30 s at 10 μl/min Binding of 3.91, 7.81, 15.6, 31.3, 62.5, and 125 nM human CD40 extracellular domain (produced in house) was evaluated using association time of 180 s at 30 μl/min, followed by a dissociation time of 360 s at 30 μl/min Regeneration between cycles was accomplished using two 15 s injections of 10 mM glycine pH 1.5. […] Data were analyzed using BIAcore™ T200 evaluation software by fitting to a 1:1 Langmuir model.

Binder	Kd	koff	kon
B1	2.8 nM	0.00069 s⁻¹	250000 M⁻¹ s⁻¹
B2	3.3 nM	0.00084 s⁻¹	250000 M⁻¹ s⁻¹
B3	2.8 nM	0.00077 s⁻¹	280000 M⁻¹ s⁻¹
B4	2.2 nM	0.00074 s⁻¹	330000 M⁻¹ s⁻¹
B5	2.9 nM	0.0007 s⁻¹	240000 M⁻¹ s⁻¹
B7	2.6 nM	0.00078 s⁻¹	300000 M⁻¹ s⁻¹
B8	1.8 nM	0.00073 s⁻¹	400000 M⁻¹ s⁻¹
B9	2.5 nM	0.0008 s⁻¹	320000 M⁻¹ s⁻¹
B10	8.4 nM	0.00068 s⁻¹	81000 M⁻¹ s⁻¹
B12	2.2 nM	0.0007 s⁻¹	320000 M⁻¹ s⁻¹
B13	2.2 nM	0.00066 s⁻¹	300000 M⁻¹ s⁻¹
B14	2.3 nM	0.00067 s⁻¹	290000 M⁻¹ s⁻¹
B16	2.9 nM	0.00073 s⁻¹	260000 M⁻¹ s⁻¹
B17	2.3 nM	0.00075 s⁻¹	330000 M⁻¹ s⁻¹
